Measurements as given in patent US8143228B2, “Agents capable of downregulating an MSF-A dependent HIF-1α and use thereof in cancer treatment” (Medical Research Fund of Tel Aviv Sourasky Medical Center, priority 2004, dated 2012).
Entries after “also recorded” stand apart in the source; their conditions may differ.

Experiments:
HIF-1α protein [1] = assay: HIF-1α protein stability assays (cycloheximide treatment, pulse-chase) in PC-3 cells; assay type: cell-based; conditions: PC-3-Neo cells, within 20 minutes, CHX 10 μg/ml, normalized to α-tubulin
Description: FIGS. 16a-c are Western blot analyses depicting the effect of cycloheximide (CHX) on the expression level of HIF-1α (FIG. 16a) and α-tubulin (FIG. 16b) in PC-3-Neo or PC-3-MSF-A cells grown under normoxia. CHX was added to PC-3-Neo (lanes 1-5) or PC-3-MSF-A (lanes 6-10) at a final concentration of 10 μg/ml, for 0 (lanes 1 and 6), 5 (lanes 2 and 7), 15 (lanes 3 and 8), 30 (lanes 4 and 9) and 45 (lanes 5 and 10) minutes. Whole cell extracts were prepared and resolved by SDS-PAGE and Western blotting was performed with antibodies against HIF-1α (FIG. 16a) or α-tubulin (FIG. 16b). FIG. 16c is a graph depicting quantitation of the results obtained in FIGS. 16a and b expressed as the ratio of HIF-1α expression level normalized to that of α-tubulin. Note, the relatively slow degradation of HIF-1α in cells over-expressing the MSF-A protein, with a degradation half-life of 40 minutes as compared to the degradation half-life of less than 20 minutes in PC-3-Neo cells (FIG. 16c).
FIGS. 17a-b depict pulse-chase analysis of HIF-1α. […] FIG. 17b-quantification of the autoradiographic HIF-1α signal by densitometry.
HIF-1α protein stability assays—Cells were plated into 6-well plates and grown to 70% confluence. […] Immunoprecipitates were analyzed on SDS-PAGE and visualized by autoradiography.

[2] = system: HIF-1α transcriptional activity; assay: HRE-dependent luciferase reporter gene assay in HEK 293 cells; assay type: cell-based; conditions: transient transfection, hypoxia, compared with empty vector
Description: FIG. 7 is a graph depicting luciferase activity (a reporter of HIF-1α transcriptional activation) as a function of the presence or absence of the N-terminus of the MSF-A protein. HEK 293 cells were co-transfected with 0.1 μg HRE-dependent luciferase reporter [pBI-GL V6L (Post, D. E., and Van Meir, E. G. 2001. Generation of bidirectional hypoxia/HIF-responsive expression vectors to target gene expression to hypoxic cells. Gene Ther 8, 1801-1807. Mabjeesh, N. J., et al., 2002, Geldanamycin induces degradation of hypoxia-inducible factor 1 alpha protein via the proteasome pathway in prostate cancer cells. Cancer Res 62, 2478-2482) and the wild type (WT) MSF-A (p3xFlag-MSF-A), ΔN-MSF-A (ΔN) (p3xFlag-ΔN-MSF-A) or empty vector (EV) (p3xFlag-cmv-25) constructs as follows: Experiment (Exp.) No. 1=1 μg EV; Exp. No. 2=0.5 μg EV and 0.5 μg WT; Exp. No. 3-1 μg WT; Exp. No. 4=0.5 μg EV and 0.5 μg ΔN; Exp. No. 5=1 μg ΔN. After 24 hours of transfection, cells were subjected to normoxia or hypoxia for overnight and then analyzed for luciferase luminescence assay. Luciferase activity is presented as relative units per μg protein in each experiment. Columns represent means; bars represent SD; n=3; *, p<0.05 compared to hypoxia of EV. Note the significant decrease of luciferase activity in cells grown under hypoxia and transfected with the N-terminus truncated form (ΔN) of MSF-A as compared with cells transfected with the wild-type form of MSF-A. Also note that under normoxia, when the luciferase activity is hardly detected, no significant difference is obtained.
FIG. 8 is a graph depicting luciferase activity (a reporter of HIF-1α transcriptional activation) as a function of the presence or absence of the GTP binding site of MSF-A (ΔG). HEK 293 cells were cotransfected with HRE-dependent luciferase reporter and the expression vector encoding wild-type MSF-A (WT) (p3xFlag-MSF-A), the deleted GTP binding site form of MSF-A (ΔG) (p3xFlag-ΔG-MSF-A) or empty vector (EV) (p3xFlag-cmv-25) and then were exposed to hypoxia conditions as described in the description of FIG. 4, hereinabove. Luciferase activity is presented as relative units per μg protein in each experiment. Columns represent means; bars represent SD; n=3. Note the non-significant effect of the ΔG-MSF-A on HIF-1α activity.
Reporter gene assay and luminescence measurements—HRE-dependent luciferase activity was performed using the pBI-GL construct (pBI-GL V6L) containing six tandem copies of the VEGF hypoxia response element as previously described (Mabjeesh et al., 2002; Post and Van Meir, 2001). […] Luciferase enzymatic activity was measured using the commercial kit TROPIX (Bedford, Mass.) in the Galaxy luminometer (BMG Labtechnologies LUMIstar) following the manufacturer's instructions. […]

HIF-1α protein [3] = biological target: T1, HIF-1α protein (Homo sapiens, UniProt Q16665); assay: Co-immunoprecipitation / immunoblotting with HIF-1α in transfected HEK 293 cells; assay type: binding; conditions: transient transfection
T1 construct: expressed in transfected cells; host or cells: HEK 293
Description: FIGS. 9a-c are Western blot analyses of FLAG (MSF-A; FIGS. 9a and b) and HIF-1α (FIG. 9c) depicting the interaction between HIF-1α and the WT or deleted forms of MSF-A. HEK 293 cells were transiently co-transfected with expression vector encoding Flag-MSF-A (WT; p3xFlag-MSF-A), Flag-ΔG (AG; p3xFlag-ΔG-MSF-A), Flag-ΔN (ΔN; p3xFlag-ΔN-MSF-A) or empty vector (EV; p3xFlag-cmv-25). After 48 hours, the cells were lysed, subjected for immunoprecipitation (IP) using HIF-1α antibody and then immunoblotted (IB) with HIF-1α or Flag antibodies. FIG. 9a—whole cell extracts (WCE) subjected to IB with the Flag antibody (MSF-A); FIG. 9b—IP prepared by the HIF-1α antibody were subjected to IB with the Flag antibody (MSF-A); FIG. 9c—IP prepared by the HIF-1α antibody were subjected to IB with the HIF-1α antibody.
Immunoblotting—Proteins (30-60 μg/lane) from WCEs were resolved by 7.5% SDS-PAGE, electro-blotted to nitrocellulose membranes and incubated with the indicated primary antibodies, followed by horseradish peroxidase-conjugated secondary antiserum (Amersham Biosciences, Piscataway, N.J.). Immunoreactivity was visualized by Amersham enhanced chemiluminescence reagent (Amersham Biosciences, Piscataway, N.J.). For sequential blotting with additional antibodies, the membranes were stripped from the first primary antibody using a restore Western blot stripping buffer (Pierce, Rockford, Ill.) and were re-probed using the second primary antibody as indicated.
Immunoprecipitation—Cells were washed twice with ice-cold PBS, lysed in 20 mM Na-HEPES, pH 7.5, 0.5% Nonidet P-40, 0.1M NaCl, 2 mM EDTA, 10% Glycerol and 2 mM DTT supplemented with protease and phosphatase inhibitors, and were subjected to immunoprecipitation using anti-HIF-1α antibody and protein G-agarose beads (Pierce, Ill.) according to the manufacturer's instructions.
To confirm the interaction between the HIF-1α and the MSF-A proteins, HEK 293 cells were transiently co-transfected with the p3xFlag-MSF-A and the pcDNA3.1-HIF-1α vectors, and were grown for 24 hours under normoxic conditions (i.e., conditions of 20% oxygen), following which whole cell extracts (WCE) were subjected to co-immunoprecipitation (IP) using anti-FLAG or anti-HIF-1α antibodies. Following IP, the proteins were subjected to SDS-PAGE and immunoblotting (IB) using the counterpart antibody. As is shown in FIGS. 3a-d, following transfection with both expression vectors (i.e., pcDNA3.1-HIF-1α and p3xFlag-MSF-A) immunoprecipitates generated using either the anti-HIF-1α antibody or the anti-Flag antibody included the reciprocal proteins, i.e., the Flag-MSF-A or HIF-1α proteins, respectively.

T1 sequence (Q16665 whole entry): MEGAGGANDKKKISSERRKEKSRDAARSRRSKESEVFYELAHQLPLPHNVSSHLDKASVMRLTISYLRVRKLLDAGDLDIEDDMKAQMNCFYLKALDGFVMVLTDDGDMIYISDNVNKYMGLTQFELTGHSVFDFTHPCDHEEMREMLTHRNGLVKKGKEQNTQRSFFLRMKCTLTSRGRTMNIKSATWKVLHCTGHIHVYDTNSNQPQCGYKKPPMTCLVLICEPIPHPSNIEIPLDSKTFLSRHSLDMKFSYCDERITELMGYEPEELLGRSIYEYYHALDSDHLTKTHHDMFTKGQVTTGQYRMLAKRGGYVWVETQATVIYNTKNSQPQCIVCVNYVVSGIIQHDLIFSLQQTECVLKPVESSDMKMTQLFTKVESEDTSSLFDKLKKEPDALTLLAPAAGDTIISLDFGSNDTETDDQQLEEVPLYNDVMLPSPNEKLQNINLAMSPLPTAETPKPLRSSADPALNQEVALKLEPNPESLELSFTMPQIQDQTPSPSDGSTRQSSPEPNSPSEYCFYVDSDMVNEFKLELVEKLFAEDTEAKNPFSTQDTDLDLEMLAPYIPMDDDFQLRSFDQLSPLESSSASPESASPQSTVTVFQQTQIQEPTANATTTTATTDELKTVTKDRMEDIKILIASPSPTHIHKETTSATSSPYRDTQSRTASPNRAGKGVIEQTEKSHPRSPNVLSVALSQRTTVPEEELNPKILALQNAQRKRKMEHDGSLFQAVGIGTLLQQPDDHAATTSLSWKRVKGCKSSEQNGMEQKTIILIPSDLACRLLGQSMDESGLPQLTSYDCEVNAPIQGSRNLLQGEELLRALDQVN

Row | association with HIF-1α protein (co-immunoprecipitation) (HIF-1α protein [3]) | association with HIF-1α protein (co-immunoprecipitation) (HIF-1α protein [3]; listed as N-terminal truncated form of MSF-A) | association with HIF-1α protein (co-immunoprecipitation) (HIF-1α protein [3]; listed as ΔN-MSF) | association with HIF-1α protein (co-immunoprecipitation) (HIF-1α protein [3]; listed as ΔG-MSF) | Molecule | HIF-1α protein levels after exposure to CHX (HIF-1α protein [1]) | HIF-1α transcriptional activity (luciferase reporter) [2] | HIF-1α transcriptional activity (luciferase reporter) ([2]; listed as ΔG-MSF)
1 |  |  |  |  | C[C@@H]1C[C@@H]([C@H](O)CC2CC(=O)NC(=O)C2)C(=O)[C@@H](C)C1 [CHX, cycloheximide] | about 50% |  | 
2 | capable of binding | unable to form a protein complex | co-immunoprecipitated |  | ΔN-MSF-A: N-terminal truncated MSF-A, deletion of the first 25 amino acids (SEQ ID NO:10, encoded by SEQ ID NO:7) (protein, listed as Homo sapiens, 3xFlag tag) ALKRSFEVEEVETPNSTPPRRVQTPLLRATVASSTQKFQDLGVKNSEPSARHVDSLSQRSPKASLRRVELSGPKAAEPVSRRTELSIDISSKQVENAGAIGPSRFGLKRAEVLGHKTPEPAPRRTEITIVKPQESAHRRMEPPASKVPEVPTAPATDAAPKRVEIQMPKPAEAPTAPSPAQTLENSEPAPVSQLQSRLEPKPQPPVAEATPRSQEATEAAPSCVGDMADTPRDAGLKQAPASRNEKAPVDFGYVGIDSILEQMRRKAMKQGFEFNIMVVGQSGLGKSTLINTLFKSKISRKSVQPTSEERIPKTIEIKSITHDIEEKGVRMKLTVIDTPGFGDHINNENCWQPIMKFINDQYEKYLQEEVNINRKKRIPDTRVHCCLYFIPATGHSLRPLDIEFMKRLSKVVNIVPVIAKADTLTLEERVHFKQRITADLLSNGIDVYPQKEFDEDSEDRLVNEKFREMIPFAVVGSDHEYQVNGKRILGRKTKWGTIEVENTTHCEFAYLRDLLIRTHMQNIKDITSSIHFEAYRVKRLNEGSSAMANGVEEKEPEAPEM |  | dose-dependent inhibition; also recorded: inhibition of HIF-1α activation below the level observed in cells transfected with the empty vector | 
3 | capable of binding |  |  | co-immunoprecipitated | ΔG-MSF-A: MSF-A mutant lacking the GTP binding domain, deletion of amino acids 305-312 GQSGLGKS (SEQ ID NO:4215) (protein, listed as Homo sapiens, 3xFlag tag) MKKSYSGGTRTSSGRLRRLGDSSGPALKRSFEVEEVETPNSTPPRRVQTPLLRATVASSTQKFQDLGVKNSEPSARHVDSLSQRSPKASLRRVELSGPKAAEPVSRRTELSIDISSKQVENAGAIGPSRFGLKRAEVLGHKTPEPAPRRTEITIVKPQESAHRRMEPPASKVPEVPTAPATDAAPKRVEIQMPKPAEAPTAPSPAQTLENSEPAPVSQLQSRLEPKPQPPVAEATPRSQEATEAAPSCVGDMADTPRDAGLKQAPASRNEKAPVDFGYVGIDSILEQMRRKAMKQGFEFNIMVVTLINTLFKSKISRKSVQPTSEERIPKTIEIKSITHDIEEKGVRMKLTVIDTPGFGDHINNENCWQPIMKFINDQYEKYLQEEVNINRKKRIPDTRVHCCLYFIPATGHSLRPLDIEFMKRLSKVVNIVPVIAKADTLTLEERVHFKQRITADLLSNGIDVYPQKEFDEDSEDRLVNEKFREMIPFAVVGSDHEYQVNGKRILGRKTKWGTIEVENTTHCEFAYLRDLLIRTHMQNIKDITSSIHFEAYRVKRLNEGSSAMANGVEEKEPEAPEM |  | no significant effect | lack of activation
